Assay results: patent publication US20250270737A1, “Antibodies That Bind GLP1R” (Twist Bioscience Corporation, priority 2019, published 2025)
Changes are numbered by the printed parent chain. Blank lines part the entries; values can stand above or below the molecule they belong to.

How the values were obtained:
[1] = Thermal ramp stability (Tm and Tagg), UNcle platform; assay type: physicochemical
Source text: The GLP1R IgGs were characterized for thermal ramp stability (Tm and Tagg). The UNcle platform was used to characterize the IgGs and the data is seen in Table 21.

GLP1R = GLP1R (Homo sapiens, UniProt P43220); assay: Binding assay with flow cytometry on flag-GLP1R-GFP expressing CHO cells (CHO-GLP1R); conditions: 100 nM IgG
Sequence of GLP1R (P43220 24-463): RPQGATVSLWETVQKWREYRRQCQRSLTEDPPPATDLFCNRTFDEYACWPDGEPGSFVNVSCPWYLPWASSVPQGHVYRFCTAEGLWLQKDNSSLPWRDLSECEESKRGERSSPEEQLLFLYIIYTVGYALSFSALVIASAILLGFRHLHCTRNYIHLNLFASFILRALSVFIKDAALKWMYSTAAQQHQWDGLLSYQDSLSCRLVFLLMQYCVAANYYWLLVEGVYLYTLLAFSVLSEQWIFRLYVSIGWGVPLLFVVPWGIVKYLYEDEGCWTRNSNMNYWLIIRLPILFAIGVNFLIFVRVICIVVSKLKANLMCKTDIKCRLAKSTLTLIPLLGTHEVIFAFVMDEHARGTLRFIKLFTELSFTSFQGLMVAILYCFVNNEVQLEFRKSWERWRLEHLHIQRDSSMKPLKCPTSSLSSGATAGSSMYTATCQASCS
Description: (§1) Briefly, flag-GLP1R-GFP expressing CHO cells (CHO-GLP1R) and CHO-parent cells were incubated with 100 nM IgG for 1 hour on ice, washed three times and incubated with Alexa 647 conjugated goat-anti-human antibody (1:200) for 30 minutes on ice, followed by three washes. All incubations and washes were performed in buffer containing PBS and 0.5% BSA. For titrations, IgG was serially diluted 1:3 starting from 100 nM. […] Analyses of binding assays with IgG titrations presented as binding curves plotting IgG concentrations against MFI (mean fluorescence intensity) are seen in FIGS. 15A-15H. Flow cytometry data of binding assays presented as dot plots with 100 nM IgG are seen in FIGS. 16A-16I.
(§2) The GLP1R IgGs were then assayed in binding assays coupled to flow cytometry analysis using similar methods as described in Example 12. Briefly, stably expressing Flag-GLP1R-GFP CHO cells or CHO-parent cells were incubated with primary IgG (100 nM or 1:3 titrations). Secondary antibody incubation involved Alexa 647 conjugated goat-anti-human IgG. Flow cytometry measured the GFP signal against the Alexa 647 signal to identify IgGs that specifically bound to the target (GLP1R).

CHO-parent cells = assay: Binding assay with flow cytometry on CHO-parent cells; conditions: 100 nM IgG
Description: as §1, §2

B1: GLP1R-241: GLP1R scFv clone reformatted to IgG2; CDR-H3 SEQ ID NO 2299, heavy 2306, light 2313 (antibody)
heavy: MEWSWVFLFFLSVTTGVHSQVQLVQSGAEVKKPGSSVKVSCKASGGTFSDYAISWVRQAPGQGLEWMGGIIPIFGTTNYAQKFQGRVTITADESTSTAYMELSSLRSEDTAVYYCAKHMSMQGSVAGGTFTSDVSSYLEGQAAKEFIAWLVKGGPSFIRADLVGDAFDVWGQGTLVTVSSASASTKGPSVFPLAPCSRSTSESTAALGCLVKDYFPEPVTVSWNSGALTSGVHTFPAVLQSSGLYSLSSVVTVPSSNFGTQTYTCNVDHKPSNTKVDKTVERKCCVECPPCPAPPVAGPSVFLFPPKPKDTLMISRTPEVTCVVVDVSHEDPEVQFNWYVDGVEVHNAKTKPREEQFNSTFRVVSVLTVVHQDWLNGKEYKCKVSNKGLPAPIEKTISKTKGQPREPQVYTLPPSREEMTKNQVSLTCLVKGFYPSDIAVEWESNGQPENNYKTTPPMLDSDGSFFLYSKLTVDKSRWQQGNVFSCSVMHEALHNHYTQKSLSLSPG
light: MSVPTQVLGLLLLWLTDARCQSVLTQPPSVSAAPGQKVTISCSGISSNIGNNYVSWYQQLPGTAPKLLIYDDDQRPSGIPDRFSGSKSGTSATLGITGLQTGDEADYYCGTWDNILSAAVFGGGTKLTVLGQPKAAPSVTLFPPSSEELQANKATLVCLISDFYPGAVTVAWKADSSPVKAGVETTTPSKQSNNKYAASSYLSLTPEQWKSHRSYSCQVTHEGSTVEKTVAPTECS
- Average Tagg 266 [1]: 65.9 °C
- Average Tm2 [1]: 75.7 °C
- Average Tml [1]: 68.2 °C
- binding to CHO-GLP1R (GLP1R): found to bind to CHO-GLP1R

B3: GLP1R-242: GLP1R scFv clone reformatted to IgG2; CDR-H3 SEQ ID NO 2300, heavy 2307, light 2314 (antibody)
heavy: MEWSWVFLFFLSVTTGVHSQVQLVQSGAEVKKPGSSVKVSCKASGGTFSSYEISWVRQAPGQGLEWMGGIIPILGIANYAQKFQGRVTITADESTSTAYMELSSLRSEDTAVYYCAKHMSMQADTGTFTSDVSSYLEGQAAKEFIAWLVKGEFSSRADLVGDAFDVWGQGTLVTVSSASASTKGPSVFPLAPCSRSTSESTAALGCLVKDYFPEPVTVSWNSGALTSGVHTFPAVLQSSGLYSLSSVVTVPSSNFGTQTYTCNVDHKPSNTKVDKTVERKCCVECPPCPAPPVAGPSVFLFPPKPKDTLMISRTPEVTCVVVDVSHEDPEVQFNWYVDGVEVHNAKTKPREEQFNSTFRVVSVLTVVHQDWLNGKEYKCKVSNKGLPAPIEKTISKTKGQPREPQVYTLPPSREEMTKNQVSLTCLVKGFYPSDIAVEWESNGQPENNYKTTPPMLDSDGSFFLYSKLTVDKSRWQQGNVFSCSVMHEALHNHYTQKSLSLSPG
light: B1 light with I45S, G50E, Y53D, D71G, D72N, I115T, A119G
- binding to CHO-GLP1R (GLP1R): found to bind to CHO-GLP1R

B4: GLP1R-238: GLP1R scFv clone reformatted to IgG2; CDR-H3 SEQ ID NO 2296, heavy 2303, light 2310 (antibody)
heavy: MEWSWVFLFFLSVTTGVHSQVQLVQSGAEVKKPGSSVKVSCKASGGSFSSHAISWVRQAPGQGLEWMGGIIPIFGAPNYAQKFQGRVTITADESTSTAYMELSSLRSEDTAVYYCARANQHFSQAGRAARVPGPSSSLGPRGYHYYGMDVWGQGTLVTVSSASASTKGPSVFPLAPCSRSTSESTAALGCLVKDYFPEPVTVSWNSGALTSGVHTFPAVLQSSGLYSLSSVVTVPSSNFGTQTYTCNVDHKPSNTKVDKTVERKCCVECPPCPAPPVAGPSVFLFPPKPKDTLMISRTPEVTCVVVDVSHEDPEVQFNWYVDGVEVHNAKTKPREEQFNSTFRVVSVLTVVHQDWLNGKEYKCKVSNKGLPAPIEKTISKTKGQPREPQVYTLPPSREEMTKNQVSLTCLVKGFYPSDIAVEWESNGQPENNYKTTPPMLDSDGSFFLYSKLTVDKSRWQQGNVFSCSVMHEALHNHYTQKSLSLSPG
light: MSVPTQVLGLLLLWLTDARCQSVLTQPPSVSAAPGQKVTISCSGSTSNIANNYVSWYQQLPGTAPKLLIYANNRRPSGIPDRFSGSKSGTSATLGITGLQTGDEADYYCGAWDVRLDVGVFGGGTKLTVLGQPKAAPSVTLFPPSSEELQANKATLVCLISDFYPGAVTVAWKADSSPVKAGVETTTPSKQSNNKYAASSYLS
- binding to CHO-parent cells versus CHO-GLP1R (specificity) (CHO-parent cells): bound equally to CHO-GLP1R and CHO-parent cells
- binding to CHO-GLP1R (GLP1R): found to bind to CHO-GLP1R

B6: GLP1R-240: GLP1R scFv clone reformatted to IgG2; CDR-H3 SEQ ID NO 2298, heavy 2305, light 2312 (antibody)
heavy: MEWSWVFLFFLSVTTGVHSQVQLVQSGAEVKKPGSSVKVSCKASGGTFNNYGISWVRQAPGQGLEWMGGIIPVFGTANYAQKFQGRVTITADESTSTAYMELSSLRSEDTAVYYCARDMYYDFFGLGTFTSDVSSYLEGQAAKEFIAWLVKGVSPEVVPADDAFDIWGQGTLVTVSSASASTKGPSVFPLAPCSRSTSESTAALGCLVKDYFPEPVTVSWNSGALTSGVHTFPAVLQSSGLYSLSSVVTVPSSNFGTQTYTCNVDHKPSNTKVDKTVERKCCVECPPCPAPPVAGPSVFLFPPKPKDTLMISRTPEVTCVVVDVSHEDPEVQFNWYVDGVEVHNAKTKPREEQFNSTFRVVSVLTVVHQDWLNGKEYKCKVSNKGLPAPIEKTISKTKGQPREPQVYTLPPSREEMTKNQVSLTCLVKGFYPSDIAVEWESNGQPENNYKTTPPMLDSDGSFFLYSKLTVDKSRWQQGNVFSCSVMHEALHNHYTQKSLSLSPG
light: MSVPTQVLGLLLLWLTDARCQSVLTQPPSVSAAPGQKVTISCSGSSSSIGNNYVSWYQQLPGTAPKLLIYANNKRPSGIPDRFSGSKSGTSATLGITGLQTGDEADYYCATWSSSPRGWVFGGGTKLTVLGQPKAAPSVTLFPPSSEELQANKATLVCLISDFYPGAVTVAWKADSSPVKAGVETTTPSKQSNNKYAASSYLSLTPEQWKSHRSYSCQVTHEGSTVEKTVAPTECS
- binding to CHO-GLP1R (GLP1R): found to bind to CHO-GLP1R

Further lines, results first:

- binding to CHO-GLP1R (GLP1R): found to bind to CHO-GLP1R
B2: GLP1R-244: GLP1R scFv clone reformatted to IgG2; CDR-H3 SEQ ID NO 2302, heavy 2309, light 2316 (antibody)
heavy: MEWSWVFLFFLSVTTGVHSQVQLVQSGAEVKKPGSSVKVSCKASGGTFSSYAISWVRQAPGQGLEWMGGIIPIFGTANYAQKFQGRVTITADESTSTAYMELSSLRSEDTAVYYCARANQHFAATGAGEGQAAKEFIAWLVKGRVEIGYHYYGMDVWGQGTLVTVSSASASTKGPSVFPLAPCSRSTSESTAALGCLVKDYFPEPVTVSWNSGALTSGVHTFPAVLQSSGLYSLSSVVTVPSSNFGTQTYTCNVDHKPSNTKVDKTVERKCCVECPPCPAPPVAGPSVFLFPPKPKDTLMISRTPEVTCVVVDVSHEDPEVQFNWYVDGVEVHNAKTKPREEQFNSTFRVVSVLTVVHQDWLNGKEYKCKVSNKGLPAPIEKTISKTKGQPREPQVYTLPPSREEMTKNQVSLTCLVKGFYPSDIAVEWESNGQPENNYKTTPPMLDSDGSFFLYSKLTVDKSRWQQGNVFSCSVMHEALHNHYTQKSLSLSPG
light: B1 light with I45S, Y53V, D72N, Q74K, P76R, T111S, N114T, I115S, A118V, A119W

- binding to CHO-GLP1R (GLP1R): found to bind to CHO-GLP1R
B5: GLP1R-243: GLP1R scFv clone reformatted to IgG2; CDR-H3 SEQ ID NO 2301, heavy 2308, light 2315 (antibody)
heavy: MEWSWVFLFFLSVTTGVHSQVQLVQSGAEVKKPGSSVKVSCKASGGTFSTYGINWVRQAPGQGLEWMGGIIPIFGTANYAQKFQGRVTITADESTSTAYMELSSLRSEDTAVYYCARANQHFFGKGDNLAARDFINWLIQTKITDGSNPGYHYYGMDVWGQGTLVTVSSASASTKGPSVFPLAPCSRSTSESTAALGCLVKDYFPEPVTVSWNSGALTSGVHTFPAVLQSSGLYSLSSVVTVPSSNFGTQTYTCNVDHKPSNTKVDKTVERKCCVECPPCPAPPVAGPSVFLFPPKPKDTLMISRTPEVTCVVVDVSHEDPEVQFNWYVDGVEVHNAKTKPREEQFNSTFRVVSVLTVVHQDWLNGKEYKCKVSNKGLPAPIEKTISKTKGQPREPQVYTLPPSREEMTKNQVSLTCLVKGFYPSDIAVEWESNGQPENNYKTTPPMLDSDGSFFLYSKLTVDKSRWQQGNVFSCSVMHEALHNHYTQKSLSLSPG
light: MSVPTQVLGLLLLWLTDARCQSVLTQPPSVSAAPGQKVTISCSGSRSNIGKNYVSWYQQLPGTAPKLLIYENNERPSGIPDRFSGSKSGTSATLGITGLQTGDEADYYCSSYTTSNTQVFGGGTKLTVLGQPKAAPSVTLFPPSSEELQANKATLVCLISDFYPGAVTVAWKADSSPVKAGVETTTPSKQSNNKYAASSYLSLTPEQWKSHRSYSCQVTHEGSTVEKTVAPTECS
